Assay results taken from US20120316071A1 (published 2012).

How the values were obtained:
[1] = molecular target: T1, rHuman Erythropoietin R/Fc Chimera, CF (R&D Systems Cat#963-ER) (human, UniProt P19235 25-250); test: Multispot ECL (MSD), antigen spotted on plate, Fab 13.1 nM; blank spot 376
T1 construct: Bought recombinant protein; also called EPO R/Fc; Epo R; Fc part of the bought chimera not given
T1 sequence (looked up): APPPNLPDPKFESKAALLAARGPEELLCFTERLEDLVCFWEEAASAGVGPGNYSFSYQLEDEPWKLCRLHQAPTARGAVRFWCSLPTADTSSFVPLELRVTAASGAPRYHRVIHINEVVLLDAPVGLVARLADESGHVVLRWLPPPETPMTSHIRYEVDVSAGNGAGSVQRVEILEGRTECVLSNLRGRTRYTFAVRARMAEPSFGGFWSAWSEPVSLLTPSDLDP

[2] = molecular target: T2, rHuman ErbB2/Fc Chimera, CF (R&D Systems Cat#1129-ER) (human, UniProt P04626 23-652); test: as above
T2 construct: Bought recombinant protein; also called human epidermal growth factor 2 receptor; Fc part of the bought chimera not given

[3] = molecular target: T3, rHuman CD44/Fc Chimera, CF (R&D Systems Cat#3660-CD) (human, UniProt P16070 21-220); test: as above
T3 construct: Bought recombinant protein; Fc part of the bought chimera not given

[4] = molecular target: T4, rHuman EGF R/Fc Chimera, CF (R&D Systems Cat#344-ER) (human, UniProt P00533 25-645); test: as above
T4 construct: Bought recombinant protein; also called epidermal growth factor receptor; Fc part of the bought chimera not given

[5] = molecular target: T5, rHuman HGF R/c-MET/Fc Chimera, CF (R&D Systems Cat#358-MT/CF) (human, UniProt P08581 25-932); test: as above
T5 construct: Bought recombinant protein; also called HGF R/Fc; hepatocyte growth factor receptor; Fc part of the bought chimera not given

[6] = molecular target: T1, rHuman Erythropoietin R/Fc Chimera, CF …; test: Multispot ECL (MSD), antigen spotted on plate, Fab 3.3 nM; blank spot 359
[7] = molecular target: T2, rHuman ErbB2/Fc Chimera, CF (R&D …); test: as above
[8] = molecular target: T3, rHuman CD44/Fc Chimera, CF (R&D Systems …); test: as above
[9] = molecular target: T4, rHuman EGF R/Fc Chimera, CF (R&D …); test: as above
[10] = molecular target: T5, rHuman HGF R/c-MET/Fc Chimera, CF (R&D …); test: as above
[11] = molecular target: T1, rHuman Erythropoietin R/Fc Chimera, CF …; test: Multispot ECL (MSD), antigen spotted on plate, Fab 210 nM; blank spot 833
[12] = molecular target: T2, rHuman ErbB2/Fc Chimera, CF (R&D …); test: as above
[13] = molecular target: T3, rHuman CD44/Fc Chimera, CF (R&D Systems …); test: as above
[14] = molecular target: T4, rHuman EGF R/Fc Chimera, CF (R&D …); test: as above
[15] = molecular target: T5, rHuman HGF R/c-MET/Fc Chimera, CF (R&D …); test: as above
[16] = molecular target: T1, rHuman Erythropoietin R/Fc Chimera, CF …; test: Multispot ECL (MSD), antigen spotted on plate, Fab 52.5 nM; blank spot 467
[17] = molecular target: T2, rHuman ErbB2/Fc Chimera, CF (R&D …); test: as above
[18] = molecular target: T3, rHuman CD44/Fc Chimera, CF (R&D Systems …); test: as above
[19] = molecular target: T4, rHuman EGF R/Fc Chimera, CF (R&D …); test: as above
[20] = molecular target: T5, rHuman HGF R/c-MET/Fc Chimera, CF (R&D …); test: as above
[21] = molecular target: T6, rHuman EGF R/Fc Chimera, CF (R&D Systems Cat#344-ER) (human, UniProt P00533 25-645); test: ECL multispot (MSD) assay, antigen spotted on plate, Fab at 0.1 µM
T6 construct: Bought recombinant protein; also called epidermal growth factor receptor; Fc part of the bought chimera not given

[22] = molecular target: T7, rHuman ErbB2/Fc Chimera, CF (R&D Systems Cat#1129-ER) (human, UniProt P04626 23-652); test: as above
T7 construct: Bought recombinant protein; also called human epidermal growth factor 2 receptor; Fc part of the bought chimera not given

[23] = molecular target: T8, rHuman IGF-1 sR, CF (R&D Systems Cat#391-GR) (human, UniProt P08069 31-932); test: as above
T8 construct: Bought recombinant soluble receptor; also called insulin-like growth factor-1 soluble receptor

[24] = molecular target: T9, rHuman P-Cadherin/Fc Chimera, CF (R&D Systems Cat#861-PC) (human, UniProt P22223 108-654); test: as above
T9 construct: Bought recombinant protein; Fc part of the bought chimera not given

[25] = molecular target: T10, rHuman CD44/Fc Chimera, CF (R&D Systems Cat#3660-CD) (human, UniProt P16070 21-220); test: as above
T10 construct: Bought recombinant protein; Fc part of the bought chimera not given

[26] = molecular target: T11, rHuman Notch-1/Fc Chimera, CF (R&D Systems Cat#3647-TK) (human, UniProt P46531 19-526); test: as above
T11 construct: Bought recombinant protein; Fc part of the bought chimera not given

[27] = molecular target: T12, rHuman HGF R/c-MET/Fc Chimera, CF (R&D Systems Cat#358-MT/CF) (human, UniProt P08581 25-932); test: as above
T12 construct: Bought recombinant protein; also called HGF R/Fc; hepatocyte growth factor receptor; Fc part of the bought chimera not given

[28] = molecular target: T13, rHuman Erythropoietin R/Fc Chimera, CF (R&D Systems Cat#963-ER) (human, UniProt P19235 25-250); test: as above
T13 construct: Bought recombinant protein; also called EPO R; EPO R/Fc; Fc part of the bought chimera not given
T13 sequence (looked up): T1 sequence (looked up)

[29] = molecular target: T14, Recombinant Human DLL4 (R&D Systems Cat#1506-D4/CF) (human, UniProt Q9NR61 27-524); test: as above
T14 construct: Bought recombinant protein; also called delta-like protein 4; rHuman DLL4

[30] = molecular target: T6, rHuman EGF R/Fc Chimera, CF (R&D …); test: ECL multispot (MSD) assay, antigen spotted on plate, Fab at 0.01 µM
[31] = molecular target: T7, rHuman ErbB2/Fc Chimera, CF (R&D …); test: as above
[32] = molecular target: T8, rHuman IGF-1 sR, CF (R&D Systems …); test: as above
[33] = molecular target: T9, rHuman P-Cadherin/Fc Chimera, CF (R&D …); test: as above
[34] = molecular target: T10, rHuman CD44/Fc Chimera, CF (R&D Systems …); test: as above
[35] = molecular target: T11, rHuman Notch-1/Fc Chimera, CF (R&D …); test: as above
[36] = molecular target: T12, rHuman HGF R/c-MET/Fc Chimera, CF (R&D …); test: as above
[37] = molecular target: T13, rHuman Erythropoietin R/Fc Chimera, CF …; test: as above
[38] = molecular target: T14, Recombinant Human DLL4 (R&D Systems …); test: as above

B1: Fab VH4-31_IGHD2-15*01_IGHJ2*01 & V1-4_IGLJ4*01 (Fab, V domains shown)
VH: QVQLQESGPGLVKPSQTLSLTCTVSGGSISSGGYYWSWIRQHPGKGLEWIGYIYYSGSTYYNPSLKSRVTISVDTSKNQFSLKLSSVTAADTAVYYCAREGYCSGGSCYSYWYFDLWGRGTLVTVSS
VL: QSALTQPASVSGSPGQSITISCTGTSSDVGGYNYVSWYQQHPGKAPKLMIYEVSNRPSGVSNRFSGSKSGNTASLTISGLQAEDEADYYCSSYTSSSTLFVFGGGTQLIIL
notes: Tested as a Fab made in E. coli; The heavy chain variable region was cloned into Plasmid A (CH1 constant region, His6 and Flag tags); The lambda light chain variable region was cloned into Plasmid E (lambda CL); Only the variable domains are tied to this Fab by name
- ECL signal at 13.1 nM Fab [1]: 776
- ECL signal at 13.1 nM Fab [2]: 930
- ECL signal at 13.1 nM Fab [3]: 708
- ECL signal at 13.1 nM Fab [4]: 824
- ECL signal at 13.1 nM Fab [5]: 981
- ECL signal at 3.3 nM Fab [6]: 695
- ECL signal at 3.3 nM Fab [7]: 1030
- ECL signal at 3.3 nM Fab [8]: 621
- ECL signal at 3.3 nM Fab [9]: 847
- ECL signal at 3.3 nM Fab [10]: 849
- ECL signal at 210 nM Fab [11]: 2120
- ECL signal at 210 nM Fab [12]: 1980
- ECL signal at 210 nM Fab [13]: 1400
- ECL signal at 210 nM Fab [14]: 1620
- ECL signal at 210 nM Fab [15]: 2060
- ECL signal at 52.5 nM Fab [16]: 1320
- ECL signal at 52.5 nM Fab [17]: 1510
- ECL signal at 52.5 nM Fab [18]: 897
- ECL signal at 52.5 nM Fab [19]: 1110
- ECL signal at 52.5 nM Fab [20]: 1290

B2: Fab VH1-46_IGHD6-6*01_IGHJ1*01 S102A & L6_IGKJ1*01 (Fab, V domains shown)
VH: QVQLVQSGAEVKKPGASVKVSCKASGYTFTSYYMHWVRQAPGQGLEWMGIINPSGGSTSYAQKFQGRVTMTRDTSTSTVYMELSSLRSEDTAVYYCAREEYASSSAEYFQHWGQGTLVTVSS
VL: not shown
notes: Tested as a Fab expressed in E. coli (Plasmid A: CH1, His6 and Flag tags; Plasmid C: kappa CL)
- ECL signal/noise ratio [21]: 0.9
- ECL signal/noise ratio [22]: 0.8
- ECL signal/noise ratio [23]: 1.3
- ECL signal/noise ratio [24]: 1
- ECL signal/noise ratio [25]: 1.3
- ECL signal/noise ratio [26]: 1.4
- ECL signal/noise ratio [27]: 0.5
- ECL signal/noise ratio [28]: 1.3
- ECL signal/noise ratio [29]: 71.6
- ECL signal/noise ratio [30]: 0.8
- ECL signal/noise ratio [31]: 1
- ECL signal/noise ratio [32]: 0.5
- ECL signal/noise ratio [33]: 0.2
- ECL signal/noise ratio [34]: 0.9
- ECL signal/noise ratio [35]: 0.6
- ECL signal/noise ratio [36]: 0.5
- ECL signal/noise ratio [37]: 0.8
- ECL signal/noise ratio [38]: 10
